Source: US20180346600A1
Like-named read-outs stand apart in the source and are kept apart here. Blank lines part the entries; values can stand above or below the substance they belong to.

Tests used:
Assay in all cases: HEK293-F co-expression, Protein A purification, non-reducing SDS-PAGE densitometry
[1] = target: scFv-FcCH3A, A107 (K370E/K409W) (human) [IgG part: P0DOX5]
[2] = target: scFv-FcCH3A, A107w/oW-VT (K370E) (human) [IgG part: P0DOX5]
[3] = target: scFv-FcCH3A, A107w/oW-VT (K370E) (human) [IgG part: P0DOX5]; remark: listed apart in the source
[4] = target: scFv-FcCH3A, A109 (K370M/K409W) (human) [IgG part: P0DOX5]
[5] = target: scFv-FcCH3A, A109w/oW-VT (K370M) (human) [IgG part: P0DOX5]
[6] = target: scFv-FcCH3A, A146w/oW-VT (K370D) (human) [IgG part: P0DOX5]
[7] = target: scFv-FcCH3A, A205 (E357D/S364W/K370E) (human) [IgG part: P0DOX5]
[8] = target: scFv-FcCH3A, A210 (E357A/S364Y/K370E) (human) [IgG part: P0DOX5]
[9] = target: scFv-FcCH3A, A216 (E357G/S364W/K370E) (human) [IgG part: P0DOX5]
[10] = target: scFv-FcCH3A, A241 (E357N/S364W/K370E) (human) [IgG part: P0DOX5]
[11] = target: scFv-FcCH3A, B121 (D399E/K409W) (human) [IgG part: P0DOX5]
[12] = target: scFv-FcCH3A, B135 (D399L/K409W) (human) [IgG part: P0DOX5]
[13] = target: scFv-FcCH3A, B168 (D399L/K409W) (human) [IgG part: P0DOX5]
[14] = target: scFv-FcCH3A, B168w/oW-VT (D399L) (human) [IgG part: P0DOX5]
[15] = target: scFv-FcCH3A, B168w/oW-VT (D399L) (human) [IgG part: P0DOX5]; remark: listed apart in the source
[16] = target: scFv-FcCH3A, B212 (K392I/D399L) (human) [IgG part: P0DOX5]
[17] = target: scFv-FcCH3A, B215 (K392R/K409R/D399L) (human) [IgG part: P0DOX5]
[18] = target: scFv-FcCH3A, B235 (K392C/D399L) (human) [IgG part: P0DOX5]
[19] = target: scFv-FcCH3A, B239 (K392L/D399L) (human) [IgG part: P0DOX5]
[20] = target: scFv-FcCH3A, B240 (K392S/K409R/D399L) (human) [IgG part: P0DOX5]
[21] = target: scFv-FcCH3A, B256 (K392N/D399L) (human) [IgG part: P0DOX5]
[22] = target: scFv-FcCH3A, EW-RVT (K360E/K409W) (human)
[23] = target: scFv-FcCH3A, EW-RVT (K360E/K409W) (human); remark: listed apart in the source
[24] = target: scFv-FcCH3A, W-VT (K409W) (human) [IgG part: P0DOX5]

Substance: scFv-FcCH3A, A107 (K370E/K409W) (from UniProt P0DOX5 227-449) (Fc fusion)
(scFv-Fc)2 (homodimer)(%) [1]: 4.2%

Substance: scFv-FcCH3A, A109 (K370M/K409W) (from UniProt P0DOX5 227-449) (Fc fusion)
(scFv-Fc)2 (homodimer)(%) [4]: 0.5%

Substance: scFv-FcCH3A, A109w/oW-VT (K370M) (from UniProt P0DOX5 227-449) (Fc fusion)
(scFv-Fc)2 (homodimer)(%) [5]: 5.6%

Substance: scFv-FcCH3A, A205 (E357D/S364W/K370E) (from UniProt P0DOX5 227-449) (Fc fusion)
(scFv-Fc)2 (homodimer)(%) [7]: 1%

Substance: scFv-FcCH3A, B135 (D399L/K409W) (from UniProt P0DOX5 227-449) (Fc fusion)
(scFv-Fc)2 (homodimer)(%) [12]: 4.1%

Substance: scFv-FcCH3A, B168w/oW-VT (D399L) (from UniProt P0DOX5 227-449) (Fc fusion)
(scFv-Fc)2 (homodimer)(%) [14]: 1.6%
(scFv-Fc)2 (homodimer)(%) [15]: 1.5%

Substance: scFv-FcCH3A, B215 (K392R/K409R/D399L) (from UniProt P0DOX5 227-449) (Fc fusion)
(scFv-Fc)2 (homodimer)(%) [17]: 1.9%

Substance: scFv-FcCH3A, B235 (K392C/D399L) (from UniProt P0DOX5 227-449) (Fc fusion)
(scFv-Fc)2 (homodimer)(%) [18]: 3.7%

Substance: scFv-FcCH3A, B239 (K392L/D399L) (from UniProt P0DOX5 227-449) (Fc fusion)
(scFv-Fc)2 (homodimer)(%) [19]: 3.4%

Substance: scFv-FcCH3A, EW-RVT (K360E/K409W) (Fc fusion)
(scFv-Fc)2 (homodimer)(%) [22]: 0.5%
(scFv-Fc)2 (homodimer)(%) [23]: 0.5%

Substance: scFv-FcCH3A, W-VT (K409W) (from UniProt P0DOX5 227-449) (Fc fusion)
(scFv-Fc)2 (homodimer)(%) [24]: 1.4%

The next lines start with the values.

(scFv-Fc)2 (homodimer)(%) [2]: 21.3%
(scFv-Fc)2 (homodimer)(%) [3]: 21.3%
Substance: scFv-FcCH3A, A107w/oW-VT (K370E) (from UniProt P0DOX5 227-449) (Fc fusion)

(scFv-Fc)2 (homodimer)(%) [6]: 4.6%
Substance: scFv-FcCH3A, A146w/oW-VT (K370D) (from UniProt P0DOX5 227-449) (Fc fusion)

(scFv-Fc)2 (homodimer)(%) [8]: 9.9%
Substance: scFv-FcCH3A, A210 (E357A/S364Y/K370E) (from UniProt P0DOX5 227-449) (Fc fusion)

(scFv-Fc)2 (homodimer)(%) [9]: 1.5%
Substance: scFv-FcCH3A, A216 (E357G/S364W/K370E) (from UniProt P0DOX5 227-449) (Fc fusion)

(scFv-Fc)2 (homodimer)(%) [10]: 15.7%
Substance: scFv-FcCH3A, A241 (E357N/S364W/K370E) (from UniProt P0DOX5 227-449) (Fc fusion)

(scFv-Fc)2 (homodimer)(%) [11]: 1.5%
Substance: scFv-FcCH3A, B121 (D399E/K409W) (from UniProt P0DOX5 227-449) (Fc fusion)

(scFv-Fc)2 (homodimer)(%) [13]: 1.2%
Substance: scFv-FcCH3A, B168 (D399L/K409W) (from UniProt P0DOX5 227-449) (Fc fusion)

(scFv-Fc)2 (homodimer)(%) [16]: 0.9%
Substance: scFv-FcCH3A, B212 (K392I/D399L) (from UniProt P0DOX5 227-449) (Fc fusion)

(scFv-Fc)2 (homodimer)(%) [20]: 4.8%
Substance: scFv-FcCH3A, B240 (K392S/K409R/D399L) (from UniProt P0DOX5 227-449) (Fc fusion)

(scFv-Fc)2 (homodimer)(%) [21]: 3.9%
Substance: scFv-FcCH3A, B256 (K392N/D399L) (from UniProt P0DOX5 227-449) (Fc fusion)
